Laboratory results reported in patent US20130244938A1 (Stanford University, published 2013).
Where no end group is shown, it is not given here.

T1: LGR7 (leucine-rich repeat-containing GPCR 7) (human, UniProt Q9HBX9 1-757)
T1 construct: whole, on cells; The methods say only 'recombinant LGR7' stably expressed in HEK293T cells; also called RFXR1; recombinant LGR7
T1 sequence (looked up): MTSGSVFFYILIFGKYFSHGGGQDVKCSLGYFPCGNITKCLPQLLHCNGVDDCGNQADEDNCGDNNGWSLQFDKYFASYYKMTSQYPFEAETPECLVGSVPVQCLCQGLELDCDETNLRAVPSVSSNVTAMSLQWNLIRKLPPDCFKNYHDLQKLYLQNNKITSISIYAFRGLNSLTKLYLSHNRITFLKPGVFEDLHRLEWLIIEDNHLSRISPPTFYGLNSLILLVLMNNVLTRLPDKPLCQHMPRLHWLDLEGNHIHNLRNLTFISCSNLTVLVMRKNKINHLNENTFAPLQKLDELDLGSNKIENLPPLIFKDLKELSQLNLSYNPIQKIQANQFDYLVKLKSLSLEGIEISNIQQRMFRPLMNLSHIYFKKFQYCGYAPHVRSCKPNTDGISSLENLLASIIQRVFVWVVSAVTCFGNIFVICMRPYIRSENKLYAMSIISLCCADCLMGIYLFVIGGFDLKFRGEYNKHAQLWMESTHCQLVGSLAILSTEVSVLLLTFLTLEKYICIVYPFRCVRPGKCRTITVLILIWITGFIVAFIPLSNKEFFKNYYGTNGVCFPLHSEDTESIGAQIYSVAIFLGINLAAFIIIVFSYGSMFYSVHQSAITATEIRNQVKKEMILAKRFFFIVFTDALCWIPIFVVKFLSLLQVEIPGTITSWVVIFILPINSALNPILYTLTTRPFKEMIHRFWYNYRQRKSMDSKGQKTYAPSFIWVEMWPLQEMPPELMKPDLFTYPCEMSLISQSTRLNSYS

T2: LGR7 (leucine-rich repeat-containing GPCR 7) (human) (UniProt Q9HBX9)
T2 sequence (looked up): T1 sequence (looked up)

B1: RLN2 T^A16A (ligand, not shown: small tags and cut ends)
chain 1: SWMEEVIKLCGRELVRAQIAICGMSTWSHHHHHH
chain 2: QLYSALANKCCHVGCAKRSLARFC
modifications: not fully specified; ends and bridges not checked; also: N-terminal Myc epitope tag
notes: Construct with the 8-amino acid linker, processed to the mature two-chain form
B2: RLN2^A22-23 (ligand, not shown: small tags and cut ends)
chain 1: B1 chain 1
chain 2: QLYSALANKCCHVGCTKRSLAAAC
notes: It is read here as both residues changed to alanine
B3: WT RLN2 (recombinant wild type human RLN2, Myc- and His6-tagged) (ligand, not shown: small tags and cut ends)
chain 1: B1 chain 1
chain 2: QLYSALANKCCHVGCTKRSLARFC
notes: also called wild type RLN2; wild type peptide
B4: RLN2 R^A18A (ligand, not shown: small tags and cut ends)
chain 1: B1 chain 1
chain 2: QLYSALANKCCHVGCTKASLARFC
B5: RLN2 R^A22A (ligand, not shown: small tags and cut ends)
chain 1: B1 chain 1
chain 2: QLYSALANKCCHVGCTKRSLAAFC
modifications: not fully specified; ends and bridges not checked; also: N-terminal Myc epitope tag
notes: as for B1
B6: RLN2^A19-20 (ligand, not shown: small tags and cut ends)
chain 1: B1 chain 1
chain 2: QLYSALANKCCHVGCTKRAAARFC
notes: as for B2
B7: Nontagged human RLN2 peptide (ligand)
chain 1: SWMEEVIKLCGRELVRAQIAICGMSTWS
chain 2: QLYSALANKCCHVGCTKRSLARFC
modifications: not fully specified (bridges); ends and bridges not checked
notes: Used as a standard; also called Nontagged RLN2; nontagged wild type RLN2 peptide
B8: WT RLN3 (recombinant human relaxin 3, Myc- and His6-tagged) (ligand, not shown: small tags and cut ends)
chain 1: RAAPYGVRLCGREFIRAVIFTCGGSRWHHHHHH
chain 2: DVLAGLSSSCCKWGCSKSEISSLC
modifications: not fully specified; ends and bridges not checked; also: N-terminal Myc epitope tag
B9: WT INSL3 (recombinant human insulin-like 3, Myc- and His6-tagged) (ligand, not shown: small tags and cut ends)
chain 1: PTPEMREKLCGHHFVRALVRVCGGPRWSTEAHHHHHH
chain 2: AAATNPARYCCLSGCTQQDLLTLCPY

biological target: T3, LGR8 (leucine-rich repeat-containing GPCR 8) (human, UniProt Q8WXD0 1-754); assay: cell-based or functional assay
T3 sequence (Q8WXD0 whole entry): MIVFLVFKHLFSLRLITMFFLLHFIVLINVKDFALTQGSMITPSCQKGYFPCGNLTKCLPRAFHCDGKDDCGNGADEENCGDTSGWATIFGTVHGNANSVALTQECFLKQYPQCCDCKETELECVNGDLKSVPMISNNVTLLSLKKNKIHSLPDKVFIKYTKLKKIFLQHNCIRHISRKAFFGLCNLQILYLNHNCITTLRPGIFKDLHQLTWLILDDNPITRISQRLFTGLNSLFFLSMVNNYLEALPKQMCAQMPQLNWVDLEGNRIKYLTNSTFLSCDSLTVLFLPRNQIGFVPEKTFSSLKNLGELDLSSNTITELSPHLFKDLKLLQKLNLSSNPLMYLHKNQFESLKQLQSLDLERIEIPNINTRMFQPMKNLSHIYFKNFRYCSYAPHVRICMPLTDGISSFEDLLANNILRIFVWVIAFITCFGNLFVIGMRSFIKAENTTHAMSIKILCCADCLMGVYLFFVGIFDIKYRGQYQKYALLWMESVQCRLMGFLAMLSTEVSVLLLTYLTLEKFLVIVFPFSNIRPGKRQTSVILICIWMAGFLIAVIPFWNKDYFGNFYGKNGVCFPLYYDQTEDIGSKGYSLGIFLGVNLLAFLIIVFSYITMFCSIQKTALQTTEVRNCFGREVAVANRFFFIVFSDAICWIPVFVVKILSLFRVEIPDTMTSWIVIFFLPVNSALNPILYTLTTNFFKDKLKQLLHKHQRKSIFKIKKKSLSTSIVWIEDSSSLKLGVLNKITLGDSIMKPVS

maximum LGR8-activation activity (cAMP production), against wild type RLN2 | Molecule
2 fold | B1

biological target: T3, LGR8 (leucine-rich repeat-containing …); assay: competition with 125I-RLN2 on LGR8-expressing HEK293T cells (Table 2 cell: ND, pIC50 not measurable)
Method: (§1) To determine the binding characteristics of wild type and mutant peptides, HEK293T cells expressing LGR7 or LGR8 were grown to 90% confluence, collected by centrifugation at 3000×g for 2 min, and washed two times in 2 ml of ice-cold binding buffer. Cells were resuspended in ice-cold binding buffer, and aliquots of cell suspension were incubated with increasing doses of purified recombinant peptides in the presence of 0.025 pmol of ¹²⁵I-labeled RLN2 tracer (Phoenix Pharmaceuticals, Burlingame, Calif.) at room temperature for 2 h. After washing three times in an ice-cold binding buffer, radioactivity bound to the cells was measured using a y-counter (EG&G Wallace, Gaithersburg, Md.). Total binding was determined in the absence, and nonspecific binding in the presence, of 25 nmol of unlabeled RLN2. In regular assays, total binding was ˜30,000 cpm, and nonspecific binding amounted to less than 20% of the total binding. Data points were collected in triplicate, and similar results were obtained in at least two independent assays.

binding result | Molecule
no binding | B2

biological target: T3, LGR8 (leucine-rich repeat-containing …); assay: competition with 125I-RLN2 tracer on LGR8-expressing HEK293T cells
Method: as §1

pIC50 | Molecule
7.9 | B3
7.46 | B4
6.8 | B5
7.74 | B1
7.51 | B6

biological target: T1, LGR7 (leucine-rich repeat-containing …); assay: competition with 125I-RLN2 tracer on LGR7-expressing HEK293T cells
Method: as §1

pIC50 | Molecule
8.78 | B7
8.72 | B3
8.42 | B4
8.42 | B5
7.5 | B2
8.4 | B1
8.21 | B6

biological target: T1, LGR7 (leucine-rich repeat-containing …); assay: cell-based or functional assay

pEC50, stimulation of cAMP production in LGR7-expressing HEK293T cells | Molecule
6.53 | B7
9.3 | B3
9.67 | B4
10 | B5
8.87 | B2
9.75 | B1
8.56 | B6

biological target: T3, LGR8 (leucine-rich repeat-containing …); assay: cell-based or functional assay; remark: another data set of the same source

pEC50, stimulation of cAMP production in LGR8-expressing HEK293T cells | Molecule
7.41 | B3
7.56 | B4
7.51 | B5
8.04 | B1
8.41 | B6

biological target: T2, LGR7 (leucine-rich repeat-containing GPCR 7) (human); assay: cell-based or functional assay

pEC50, stimulation of cAMP production in LGR7-expressing HEK293T cells | Molecule
8.77 | WT RLN2 (His2) (ligand)
8.66 | WT RLN2 (His1) (ligand)
7.73 | B8

biological target: LGR8 (leucine-rich repeat-containing GPCR 8) (human) (UniProt Q8WXD0); assay: cell-based or functional assay
Sequence (Q8WXD0 whole entry): as above

pEC50, stimulation of cAMP production in LGR8-expressing HEK293T cells | Molecule
9.03 | B9
